Results as given in patent US20210301005A1 (Genentech, published 2021).
Like-named read-outs stand apart in the source and are kept apart here.

T1: human TGFβ3, mature dimeric form (human, UniProt P10600 301-412)
T1 sequence: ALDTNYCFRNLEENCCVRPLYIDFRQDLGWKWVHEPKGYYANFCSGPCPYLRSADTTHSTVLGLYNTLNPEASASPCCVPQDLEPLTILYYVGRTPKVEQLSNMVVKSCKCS

T2: human TGFβ2, mature receptor-binding domain (human, UniProt P09858 303-414 (pig entry), The mature TGFβ2 is a disulfide-linked homodimer of this 112-residue chain. The 4A11 epitope spans both monomers (p-1207).)
T2 sequence: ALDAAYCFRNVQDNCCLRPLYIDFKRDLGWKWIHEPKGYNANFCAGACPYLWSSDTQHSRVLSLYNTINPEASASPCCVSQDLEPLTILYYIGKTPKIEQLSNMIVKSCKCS


Key:
[1] = molecular target: T3, human TGFβ1, mature receptor-binding domain (human, UniProt P01137 279-390); assay: cell-based or functional assay
[2] = molecular target: T1, human TGFβ3, mature dimeric form; assay: cell-based or functional assay
[3] = molecular target: T2, human TGFβ2, mature receptor-binding …; assay: cell-based or functional assay
[4] = molecular target: T2, human TGFβ2, mature receptor-binding …; assay: cell-based or functional assay; remark: listed apart in the source
[5] = molecular target: T1, human TGFβ3, mature dimeric form; assay: BIAcore T200
Description: (§1) For binding affinity determinations of all humanized 2A10 antibodies, Surface Plasmon Resonance (SPR) measurement with a BIAcore™-T200 instrument was used. Briefly, series S CM5 biosensor chip with protein A was first applied to capture each humanized 2A10 variant to achieve approximately 100 response units (RU) on each flow cell, following by injection of 3-fold serial dilutions of human TGFβ1, TGFβ2 or TGFβ3 (0.02 nM to 5 nM) in HBS-EP buffer (0.01M HEPES pH 7.4, 0.15M NaCl, 3 mM EDTA and 0.05% v/v surfactant P20) at 25° C. with a flow rate of 50 μl/min for kinetics measurement. Association rates (ko.) and dissociation rates (koff) were calculated using a simple one-to-one Langmuir binding model (BIAcore T200 evaluation software version 2.0) to determine the equilibrium dissociation constant (KD), which was calculated as the ratio koff/kₒₙ.

[6] = molecular target: T2, human TGFβ2, mature receptor-binding …; assay: BIAcore T200
Description: as §1

[7] = molecular target: T3, human TGFβ1, mature receptor-binding …; assay: cell-based or functional assay; remark: listed apart in the source
[8] = molecular target: T1, human TGFβ3, mature dimeric form; assay: cell-based or functional assay; remark: listed apart in the source
[9] = molecular target: T2, human TGFβ2, mature receptor-binding …; assay: cell-based or functional assay; remark: listed apart in the source

T3 sequence (P01137 279-390 limits assumed): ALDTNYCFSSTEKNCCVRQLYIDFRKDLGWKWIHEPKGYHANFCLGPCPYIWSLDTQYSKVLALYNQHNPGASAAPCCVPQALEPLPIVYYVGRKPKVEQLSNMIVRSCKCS

Binder | HEKBlue TGFβ blocking IC50 [1] | HEKBlue TGFβ blocking IC50 [2] | HEKBlue TGFβ blocking IC50 [3] | fold drop in blocking against h6F12.v1 [4] | Kd [5] | Kd [6] | HEKBlue TGFβ blocking IC50 [7] | HEKBlue TGFβ blocking IC50 [8] | HEKBlue TGFβ blocking IC50 [9]
h6F12.v1.2 (antibody, human IgG1, kappa, N297G, V domains shown) VH: EVTLKESGPVLVKPTETLTLTCTVSGFSLTTYNVHWVRQPPGKALEWMGLIWNTGGTRYNSALKSRLTISKDTSKSQVVLTMTNMDPVDTATYYCARDPVPNKWHFDFWGPGTLVTVSS VL: DIQMTQSPSTLSASVGDRVTITCLASEDIYSNLAWYQQKPGKSPKLLIYDARSLQDGVPSRFSGSGSGPEYTLTISSLQPDDFATYFCQQHHAYPFTFGQGTKVEIKR | > 200000 pM | > 200000 pM | 20 pM |  |  |  |  |  | 
h6F12.v1.5 (antibody, human IgG1, kappa, N297G, V domains shown) VH: EVTLKESGPVLVKPTETLTLTCTVSGFSLTTYNVHWVRQPPGKALEWMGLIWNTGGTRYNSALKSRLTISKDTSKSQVVLTMTNMDPVDTATYYCARDPVPNKWHFDFWGPGTLVTVSS VL: DIQMTQSPSTLSASVGDRVTITCLASEDIYSNLAWYQQKPGKSPKLLIYDARSLQDGVPSRFSGSESGPEYTLTISSLQPDDFATYYCQQHHAYPFTFGQGTKVEIKR | > 200000 pM | > 200000 pM | 40 pM | 2 fold |  |  |  |  | 
h6F12.v1.4 (antibody, human IgG1, kappa, N297G, V domains shown) VH: EVTLKESGPVLVKPTETLTLTCTVSGFSLTTYNVHWVRQPPGKALEWMGLIWNTGGTRYNSALKSRLTISKDTSKSQVVLTMTNMDPVDTATYYCARDPVPNKWHFDFWGPGTLVTVSS VL: DIQMTQSPSTLSASVGDRVTITCLASEDIYSNLAWYQQKPGKSPKLLIYDARSLQDGVPSRFSGSESGPEFTLTISSLQPDDFATYFCQQHHAYPFTFGQGTKVEIKR | > 200000 pM | > 200000 pM | 20 pM |  |  |  |  |  | 
h6F12.v1.3 (antibody, human IgG1, kappa, N297G, V domains shown) VH: EVTLKESGPVLVKPTETLTLTCTVSGFSLTTYNVHWVRQPPGKALEWMGLIWNTGGTRYNSALKSRLTISKDTSKSQVVLTMTNMDPVDTATYYCARDPVPNKWHFDFWGPGTLVTVSS VL: DIQMTQSPSTLSASVGDRVTITCLASEDIYSNLAWYQQKPGKSPKLLIYDARSLQDGVPSRFSGSESGTEYTLTISSLQPDDFATYFCQQHHAYPFTFGQGTKVEIKR | > 200000 pM | > 200000 pM | 10 pM |  |  |  |  |  | 
h6F12.v1.8 (antibody, human IgG1, kappa, N297G, V domains shown) VH: EVTLKESGPVLVKPTETLTLTCTVSGFSLTTYNVHWVRQPPGKALEWMALIWNTGGTRYNSALKSRLTISKDTSKSQVVLTMTNMDPVDTATYYCARDPVPNKWHFDFWGPGTLVTVSS VL: DIQMTQSPSTLSASVGDRVTITCLASEDIYSNLAWYQQKPGKSPKLLIYDARSLQDGVPSRFSGSESGPEYTLTISSLQPDDFATYFCQQHHAYPFTFGQGTKVEIKR | > 200000 pM | > 200000 pM | 80 pM | 4 fold |  |  |  |  | 
h6F12.v1.9 (antibody, V domains shown) VH: EVTLKESGPVLVKPTETLTLTCTVSGFSLTTYNVHWVRQPPGKALEWMGLIWNTGGTRYNSALKSRLTISKDTSKSQVVLTMTNMDPVDTATYYCARDPVPNKWHFDFWGRGTLVTVSS VL: DIQMTQSPSTLSASVGDRVTITCLASEDIYSNLAWYQQKPGKSPKLLIYDARSLQDGVPSRFSGSESGPEYTLTISSLQPDDFATYFCQQHHAYPFTFGQGTKVEIK | > 200000 pM | > 200000 pM | 160 pM | 5 to 8 fold |  |  |  |  | 
h6F12.v1.6 (antibody, human IgG1, kappa, N297G, V domains shown) VH: EVTLKESGPVLVKPTETLTLTCTVSGFSLTTYNVHWIRQPPGKALEWMGLIWNTGGTRYNSALKSRLTISKDTSKSQVVLTMTNMDPVDTATYYCARDPVPNKWHFDFWGPGTLVTVSS VL: DIQMTQSPSTLSASVGDRVTITCLASEDIYSNLAWYQQKPGKSPKLLIYDARSLQDGVPSRFSGSESGPEYTLTISSLQPDDFATYFCQQHHAYPFTFGQGTKVEIKR | > 200000 pM | > 200000 pM | 110 pM | 5 to 8 fold |  |  |  |  | 
h6F12.v1.7 (antibody, human IgG1, kappa, N297G, V domains shown) VH: EVTLKESGPVLVKPTETLTLTCTVSGFSLTTYNVHWVRQPPGKALEWLGLIWNTGGTRYNSALKSRLTISKDTSKSQVVLTMTNMDPVDTATYYCARDPVPNKWHFDFWGPGTLVTVSS VL: DIQMTQSPSTLSASVGDRVTITCLASEDIYSNLAWYQQKPGKSPKLLIYDARSLQDGVPSRFSGSESGPEYTLTISSLQPDDFATYFCQQHHAYPFTFGQGTKVEIKR | > 200000 pM | > 200000 pM | 30 pM |  |  |  |  |  | 
h2A10.v2.1 (antibody, human IgG1, kappa, N297G) heavy: not shown light: DIQMTQSPSSLSASVGDRVTITCRASQSVSISRFNLMHWYQHKPGKQPKLLIYRASNLASGIPSRFSGSGSGTDFTLTISSLQPEDFATYYCQHSRESPWTFGGGTKVEIKRTVAAPSVFIFPPSDEQLKSGTASVVCLLNNFYPREAKVQWKVDNALQSGNSQESVTEQDSKDSTYSLSSTLTLSKADYEKHKVYACEVTHQGLSSPVTKSFNRGEC |  |  |  |  | 3.1 pM | 238 pM | > 200000 pM | 10 pM | > 200000 pM
h2A10.v2.3 (antibody, human IgG1, kappa, N297G, V domains shown) VH: EVQLLESGGGLVQPGGSLRLSCAASGFDFNSYGMSWVRQAPGKGLELVADIVSKTYNYTTYYSDSVKDRFTISRDDSKSTVYLQMNSLRAEDTAVYYCTVAPGGSFDYWGQGTLVTVSS VL: DIQLTQSPSSLSASVGDRVTITCRASQSVSISRFNLMHWYQHKPGKAPKLLIYRASNLASGIPSRFSGSGSGTDFTLTISSLQPEDFATYYCQHSRESPWTFGGGTKVEIKR |  |  |  |  | 1.5 pM | 242 pM | > 200000 pM | 10 pM | > 200000 pM
h2A10.v2.6 (antibody, human IgG1, kappa, N297G, V domains shown) VH: EVQLLESGGGLVQPGGSLRLSCAASGFDFNSYGMSWVRQAPGKGLELVSDIVSKTYNYTTYYSDSVKDRFTISRDDSKSTVYLQMNSLRAEDTAVYYCTVAPGGSFDYWGQGTLVTVSS VL: DIQLTQSPSSLSASVGDRVTITCRASQSVSISRFNLMHWYQHKPGKQPKLLIYRASNLASGIPSRFSGSGSGTDFTLTISSLQPEDFATYYCQHSRESPWTFGGGTKVEIKR |  |  |  |  | 1.5 pM | 249 pM | > 200000 pM | 10 pM | > 200000 pM
h2A10.v2.2 (antibody, human IgG1, kappa, N297G, V domains shown) VH: EVQLLESGGGLVQPGGSLRLSCAASGFDFNSYGMSWVRQAPGKGLELVADIVSKTYNYTTYYSDSVKDRFTISRDDSKSTVYLQMNSLRAEDTAVYYCTVAPGGSFDYWGQGTLVTVSS VL: DIQLTQSPSSLSASVGDRVTITCRASQSVSISRFNLMHWYQQKPGKQPKLLIYRASNLASGIPSRFSGSGSGTDFTLTISSLQPEDFATYYCQHSRESPWTFGGGTKVEIKR |  |  |  |  | 1.2 pM | 124 pM | > 200000 pM | 10 pM | > 200000 pM
h2A10.v2.8 (antibody, human IgG1, kappa, N297G, V domains shown) VH: EVQLLESGGGLVQPGGSLRLSCAASGFDFNSYGMSWVRQAPGKGLELVADIVSKTYNYTTYYSDSVKDRFTISRDDSKNTVYLQMNSLRAEDTAVYYCTVAPGGSFDYWGQGTLVTVSS VL: DIQLTQSPSSLSASVGDRVTITCRASQSVSISRFNLMHWYQHKPGKQPKLLIYRASNLASGIPSRFSGSGSGTDFTLTISSLQPEDFATYYCQHSRESPWTFGGGTKVEIKR |  |  |  |  | 1.2 pM | 365 pM | > 200000 pM | 10 pM | > 200000 pM
h2A10.v2.4 (antibody, human IgG1, kappa, N297G, V domains shown) VH: EVQLLESGGGLVQPGGSLRLSCAASGFDFNSYGMSWVRQAPGKGLELVADIVSKTYNYTTYYSDSVKDRFTISRDDSKSTVYLQMNSLRAEDTAVYYCTVAPGGSFDYWGQGTLVTVSS VL: DIQLTQSPSSLSASVGDRVTITCRASQSVSISRFNLMHWYQHKPGKQPKLLIYRASNLASGVPSRFSGSGSGTDFTLTISSLQPEDFATYYCQHSRESPWTFGGGTKVEIKR |  |  |  |  | 2.1 pM | 190 pM | > 200000 pM | 10 pM | > 200000 pM
